Broadly, the Kd is the equilibrium constant for the complex coming apart.

What all share (conditions): protein: recombinant; tags: N-terminal His; chain copies: 2; label: 32P; blunt
The target in one data set is T1, UvrA WT (Escherichia coli, UniProt P0A698 1-940).
T1 sequence: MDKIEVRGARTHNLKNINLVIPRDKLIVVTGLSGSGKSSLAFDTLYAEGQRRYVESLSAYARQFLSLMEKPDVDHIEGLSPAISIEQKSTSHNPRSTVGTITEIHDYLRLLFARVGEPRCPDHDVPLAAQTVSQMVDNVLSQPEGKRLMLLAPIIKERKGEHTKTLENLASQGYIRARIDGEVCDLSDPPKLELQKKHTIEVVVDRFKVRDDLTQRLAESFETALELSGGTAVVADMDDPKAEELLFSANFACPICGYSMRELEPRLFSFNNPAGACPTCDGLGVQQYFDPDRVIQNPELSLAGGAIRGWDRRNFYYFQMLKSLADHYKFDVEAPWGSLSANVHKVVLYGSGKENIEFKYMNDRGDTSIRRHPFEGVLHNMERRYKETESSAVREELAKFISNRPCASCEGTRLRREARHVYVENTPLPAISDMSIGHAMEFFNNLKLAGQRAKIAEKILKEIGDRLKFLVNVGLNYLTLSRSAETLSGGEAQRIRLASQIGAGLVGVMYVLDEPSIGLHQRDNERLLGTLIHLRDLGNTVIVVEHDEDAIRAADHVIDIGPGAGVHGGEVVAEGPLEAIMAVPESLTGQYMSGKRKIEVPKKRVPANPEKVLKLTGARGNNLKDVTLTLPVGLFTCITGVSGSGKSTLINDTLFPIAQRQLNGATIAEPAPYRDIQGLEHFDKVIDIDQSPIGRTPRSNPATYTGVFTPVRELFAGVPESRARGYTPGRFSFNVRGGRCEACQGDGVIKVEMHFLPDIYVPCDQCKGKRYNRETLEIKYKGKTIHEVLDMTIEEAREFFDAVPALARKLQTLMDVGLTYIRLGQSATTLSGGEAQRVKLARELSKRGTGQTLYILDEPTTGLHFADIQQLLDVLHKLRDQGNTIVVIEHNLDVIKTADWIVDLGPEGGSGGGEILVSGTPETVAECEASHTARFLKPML
The experiment in a line: EMSA; 2 mM ATP; EMSA, 1 nM 32P-labeled 50 bp duplex, 2 mM ATP, 20 min at 37°C; buffer, salt and pH not given in the material.

The target of a further data set is T2, UvrA K37A (Escherichia coli, UniProt P0A698 1-940, K37A).
T2 sequence: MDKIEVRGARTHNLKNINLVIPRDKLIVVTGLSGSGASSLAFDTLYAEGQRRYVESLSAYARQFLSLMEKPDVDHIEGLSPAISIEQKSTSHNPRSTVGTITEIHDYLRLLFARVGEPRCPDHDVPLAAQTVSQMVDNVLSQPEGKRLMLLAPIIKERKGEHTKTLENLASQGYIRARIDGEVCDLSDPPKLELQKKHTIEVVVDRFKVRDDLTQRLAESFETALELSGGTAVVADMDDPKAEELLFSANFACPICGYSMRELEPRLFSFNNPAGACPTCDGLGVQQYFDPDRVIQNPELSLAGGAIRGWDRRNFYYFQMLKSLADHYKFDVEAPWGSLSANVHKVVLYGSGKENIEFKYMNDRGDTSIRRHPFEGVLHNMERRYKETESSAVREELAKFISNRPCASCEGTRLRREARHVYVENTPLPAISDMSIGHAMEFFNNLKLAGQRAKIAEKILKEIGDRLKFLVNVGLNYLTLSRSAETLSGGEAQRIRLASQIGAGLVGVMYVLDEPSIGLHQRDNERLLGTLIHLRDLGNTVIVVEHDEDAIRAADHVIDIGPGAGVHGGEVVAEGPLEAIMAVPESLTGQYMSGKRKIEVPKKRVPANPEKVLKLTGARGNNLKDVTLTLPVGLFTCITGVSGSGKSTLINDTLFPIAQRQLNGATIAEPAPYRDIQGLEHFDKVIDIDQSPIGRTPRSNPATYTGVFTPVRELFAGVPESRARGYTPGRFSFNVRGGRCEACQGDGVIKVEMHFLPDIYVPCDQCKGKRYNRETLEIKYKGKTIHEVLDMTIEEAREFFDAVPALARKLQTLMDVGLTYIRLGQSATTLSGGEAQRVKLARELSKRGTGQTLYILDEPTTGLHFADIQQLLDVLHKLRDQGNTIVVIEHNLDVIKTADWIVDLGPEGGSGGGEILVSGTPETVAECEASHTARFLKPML
The experiment in a line: EMSA; 2 mM ATP; binding detected at <300 nM UvrA; EMSA, 1 nM 32P-labeled 50 bp duplex, 2 mM ATP, 20 min at 37°C; buffer, salt and pH not given in the material. A general note: A gel shift assay detects complexes by their altered migration in electrophoresis.

The target in another data set is T3, UvrA G502D (Escherichia coli, UniProt P0A698 1-940, G502D).
T3 sequence: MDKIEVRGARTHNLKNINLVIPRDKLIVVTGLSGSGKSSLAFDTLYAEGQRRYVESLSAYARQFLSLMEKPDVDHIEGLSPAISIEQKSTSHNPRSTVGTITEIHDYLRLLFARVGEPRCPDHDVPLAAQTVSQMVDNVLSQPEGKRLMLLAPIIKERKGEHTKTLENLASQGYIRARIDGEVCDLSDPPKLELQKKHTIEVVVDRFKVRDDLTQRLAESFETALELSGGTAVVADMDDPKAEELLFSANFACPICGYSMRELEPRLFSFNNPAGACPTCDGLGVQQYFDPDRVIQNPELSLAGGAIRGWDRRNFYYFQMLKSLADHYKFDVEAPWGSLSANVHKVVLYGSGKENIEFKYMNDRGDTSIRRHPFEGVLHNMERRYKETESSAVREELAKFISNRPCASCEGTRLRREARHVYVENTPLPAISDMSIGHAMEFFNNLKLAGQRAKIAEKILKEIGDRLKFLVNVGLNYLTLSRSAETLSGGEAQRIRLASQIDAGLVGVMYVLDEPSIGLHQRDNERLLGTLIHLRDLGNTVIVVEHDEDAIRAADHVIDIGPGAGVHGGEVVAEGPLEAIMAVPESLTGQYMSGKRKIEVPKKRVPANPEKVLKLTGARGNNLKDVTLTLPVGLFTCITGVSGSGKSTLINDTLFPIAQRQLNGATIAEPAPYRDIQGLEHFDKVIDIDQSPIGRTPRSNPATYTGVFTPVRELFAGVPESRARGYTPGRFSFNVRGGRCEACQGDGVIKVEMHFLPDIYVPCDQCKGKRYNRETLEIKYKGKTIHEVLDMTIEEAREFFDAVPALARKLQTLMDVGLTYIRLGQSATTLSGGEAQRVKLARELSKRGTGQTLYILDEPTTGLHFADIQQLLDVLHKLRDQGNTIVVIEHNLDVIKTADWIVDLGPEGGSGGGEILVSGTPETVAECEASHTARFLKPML
The data set is described as above.

Data set [1] deals with T4, UvrA R712A R722A R724A R730A (Escherichia coli, UniProt P0A698 1-940, R712A;R722A;R724A;R730A).
T4 sequence: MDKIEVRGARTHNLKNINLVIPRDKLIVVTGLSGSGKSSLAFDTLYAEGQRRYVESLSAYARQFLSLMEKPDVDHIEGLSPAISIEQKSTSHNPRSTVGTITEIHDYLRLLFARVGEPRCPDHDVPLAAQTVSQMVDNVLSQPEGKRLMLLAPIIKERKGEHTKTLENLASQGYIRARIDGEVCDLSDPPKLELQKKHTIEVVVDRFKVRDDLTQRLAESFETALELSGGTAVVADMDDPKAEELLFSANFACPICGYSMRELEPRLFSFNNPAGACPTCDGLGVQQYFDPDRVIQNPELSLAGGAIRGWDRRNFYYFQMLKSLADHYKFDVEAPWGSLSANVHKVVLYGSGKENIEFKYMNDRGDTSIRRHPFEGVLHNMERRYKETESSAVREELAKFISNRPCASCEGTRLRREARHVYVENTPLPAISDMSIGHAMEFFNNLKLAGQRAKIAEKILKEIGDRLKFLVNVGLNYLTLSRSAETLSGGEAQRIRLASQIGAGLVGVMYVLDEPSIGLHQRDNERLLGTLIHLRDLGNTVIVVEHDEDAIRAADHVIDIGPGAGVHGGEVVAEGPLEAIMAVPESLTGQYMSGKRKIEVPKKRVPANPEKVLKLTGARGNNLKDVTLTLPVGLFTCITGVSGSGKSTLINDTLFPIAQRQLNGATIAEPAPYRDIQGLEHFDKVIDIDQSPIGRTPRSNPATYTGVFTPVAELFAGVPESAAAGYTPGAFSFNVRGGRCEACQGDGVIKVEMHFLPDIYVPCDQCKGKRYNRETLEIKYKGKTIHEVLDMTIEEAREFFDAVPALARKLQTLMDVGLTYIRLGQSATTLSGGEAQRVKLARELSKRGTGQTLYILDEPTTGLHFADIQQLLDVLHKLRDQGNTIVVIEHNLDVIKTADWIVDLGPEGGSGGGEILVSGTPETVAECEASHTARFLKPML
The experiment in a line: EMSA; 2 mM ATP; no binding detected at 800 nM UvrA; EMSA, 1 nM 32P-labeled 50 bp duplex, 2 mM ATP, 20 min at 37°C; buffer, salt and pH not given in the material.

B1: 50 bp duplex with single FldT adduct (dsDNA)
DNA 1: CTAGGATCGGATAGCGCATGACAGTGACTGGATCGACAGCGTCGTATGAG
DNA 2: CTCATACGACGCTGTCGATCCAGTCACTGTCATGCGCTATCCGATCCTAG
modifications: fluorescein-dT (FldT) at position 29 of strand 1
As for B1, in the data set with UvrA WT, the Kd stood at 5.6 ± 1 nM. Moreover, the values for the binding result (with UvrA K37A; with UvrA G502D; in data set [1]) were “binds”, “binds” and “no binding”, respectively.

Source of the values: paper PMC3025350, “Regulation and Rate Enhancement during Transcription-Coupled DNA Repair”.
